According to patent US11833164B2, “Methods of treating Fabry disease in patients having a mutation in the GLA gene” (Amicus Therapeutics, Inc., priority 2019, dated 2023):

Test system: mutant form of α-Gal A expressed in HEK-293 cells
Test: HEK assay (GLP HEK / Migalastat Amenability Assay): α-Gal A activity in lysates of transiently transfected HEK-293 cells incubated with or without 10 μM migalastat
Format: cell-based, human
Conditions: for Absolute increase (% WT) / Relative increase: 10 μM migalastat versus baseline; for Baseline α-Gal A activity (% WT): absence of migalastat; for Baseline α-Gal A activity (% WT) / 10 μM migalastat α-Gal A activity (% WT): percentage of baseline wild-type α-Gal A activity; for Baseline α-Gal A activity (% WT) / Baseline α-Gal A activity / 10 μM migalastat α-Gal A activity / 10 μM migalastat α-Gal A activity (% WT): mean ± SEM; for Baseline α-Gal A activity / 10 μM migalastat α-Gal A activity: lysates of HEK-293 cells transiently transfected with the mutant form; for Baseline α-Gal A activity: incubated 5 days in absence of migalastat; for 10 μM migalastat α-Gal A activity: incubated 5 days with 10 μM migalastat; for 10 μM migalastat α-Gal A activity (% WT): with 10 μM migalastat, 5 days
Procedure, shortened: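 Activity reported as 4-MU released (nmol/mg/hr), mean±SEM, from lysates of transiently transfected HEK-293 cells expressing mutant α-Gal A, cultured with or without 10 μM migalastat.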

Molecule | Absolute increase (% WT) | Relative increase | Baseline α-Gal A activity (% WT) | Baseline α-Gal A activity [nmol/mg/h] | 10 μM migalastat α-Gal A activity [nmol/mg/h] | 10 μM migalastat α-Gal A activity (% WT)
M353K (protein) MQLRNPELHLGCALALRFLALVSWDIPGARALDNGLARTPTMGWLHWERFMCNLDCQEEPDSCISEKLFMEMAELMVSEGWKDAGYEYLCIDDCWMAPQRDSEGRLQADPQRFPHGIRQLANYVHSKGLKLGIYADVGNKTCAGFPGSFGYYDIDAQTFADWGVDLLKFDGCYCDSLENLADGYKHMSLALNRTGRSIVYSCEWPLYMWPFQKPNYTEIRQYCNHWRNFADIDDSWKSIKSILDWTSFNQERIVDVAGPGGWNDPDMLVIGNFGLSWNQQVTQMALWAIMAAPLFMSNDLRHISPQAKALLQDKDVIAINQDPLGKQGYQLRQGDNFEVWERPLSGLAWAVAKINRQEIGGPRSYTIAVASLGKGVACNPACFITQLLPVKRKLGFYEWTSRLRSHINPTGTVLLQLENTMQMSLKDLL | 13.0 | 1.4 | 30.3 ± 1.8 | 13638 ± 804 | 19335 ± 946 | 43.4 ± 2.6
M353T (protein) MQLRNPELHLGCALALRFLALVSWDIPGARALDNGLARTPTMGWLHWERFMCNLDCQEEPDSCISEKLFMEMAELMVSEGWKDAGYEYLCIDDCWMAPQRDSEGRLQADPQRFPHGIRQLANYVHSKGLKLGIYADVGNKTCAGFPGSFGYYDIDAQTFADWGVDLLKFDGCYCDSLENLADGYKHMSLALNRTGRSIVYSCEWPLYMWPFQKPNYTEIRQYCNHWRNFADIDDSWKSIKSILDWTSFNQERIVDVAGPGGWNDPDMLVIGNFGLSWNQQVTQMALWAIMAAPLFMSNDLRHISPQAKALLQDKDVIAINQDPLGKQGYQLRQGDNFEVWERPLSGLAWAVATINRQEIGGPRSYTIAVASLGKGVACNPACFITQLLPVKRKLGFYEWTSRLRSHINPTGTVLLQLENTMQMSLKDLL | 19.2 | 1.4 | 46.4 ± 2.8 | 15631 ± 1026 | 21953 ± 937 | 65.6 ± 3
M353L (protein) MQLRNPELHLGCALALRFLALVSWDIPGARALDNGLARTPTMGWLHWERFMCNLDCQEEPDSCISEKLFMEMAELMVSEGWKDAGYEYLCIDDCWMAPQRDSEGRLQADPQRFPHGIRQLANYVHSKGLKLGIYADVGNKTCAGFPGSFGYYDIDAQTFADWGVDLLKFDGCYCDSLENLADGYKHMSLALNRTGRSIVYSCEWPLYMWPFQKPNYTEIRQYCNHWRNFADIDDSWKSIKSILDWTSFNQERIVDVAGPGGWNDPDMLVIGNFGLSWNQQVTQMALWAIMAAPLFMSNDLRHISPQAKALLQDKDVIAINQDPLGKQGYQLRQGDNFEVWERPLSGLAWAVALINRQEIGGPRSYTIAVASLGKGVACNPACFITQLLPVKRKLGFYEWTSRLRSHINPTGTVLLQLENTMQMSLKDLL | 14.6 | 1.2 | 66.6 ± 2.7 | 30347 ± 1572 | 36987 ± 1768 | 81.2 ± 2.7
I354R (protein) MQLRNPELHLGCALALRFLALVSWDIPGARALDNGLARTPTMGWLHWERFMCNLDCQEEPDSCISEKLFMEMAELMVSEGWKDAGYEYLCIDDCWMAPQRDSEGRLQADPQRFPHGIRQLANYVHSKGLKLGIYADVGNKTCAGFPGSFGYYDIDAQTFADWGVDLLKFDGCYCDSLENLADGYKHMSLALNRTGRSIVYSCEWPLYMWPFQKPNYTEIRQYCNHWRNFADIDDSWKSIKSILDWTSFNQERIVDVAGPGGWNDPDMLVIGNFGLSWNQQVTQMALWAIMAAPLFMSNDLRHISPQAKALLQDKDVIAINQDPLGKQGYQLRQGDNFEVWERPLSGLAWAVAMRNRQEIGGPRSYTIAVASLGKGVACNPACFITQLLPVKRKLGFYEWTSRLRSHINPTGTVLLQLENTMQMSLKDLL | 27.8 | 2.4 | 20.1 ± 1.2 | 9157 ± 633 | 21854 ± 1398 | 47.9 ± 2.6
